In the supplement of paper PMC12042874:
± gives the uncertainty stated by the source.

Assay: amyloid nucleation score (Sup35N fusion, yeast selection) (log enrichment); library NNK3; higher = more nucleation; inactive = no reads after selection
Method in brief: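 Sup35N was fused to peptides of 20 random codons and expressed in psi-negative yeast, which were induced with 100 μM copper sulfate for 24 hours and then grown on medium lacking adenine and uracil for 7 days at 30°C. Plasmid inserts from input and output were sequenced on Illumina. The nucleation score is the DiMSum log enrichment of output over input reads, centred on the mode score of non-aggregating sequences. Sequences with under 100 input reads were left out, and random libraries had three technical output replicates.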

Substance	amyloid nucleation score
LIYRLGNVHVPKYW	inactive
LKCDLMWLMLDNYTAVDSFR	inactive
LKCDWC	inactive
LKDYYFVLGHALYVLRNPMS	1.08 ± 0.13
LKFEVVMVLFSTIC	inactive
LKHVWLSDRALGSSLTCMAG	inactive
LKKVLPYGVRWTDITGPWVS	inactive
LKMSLPYNMMVIILKRGGAY	inactive
LKVSAFAYDKFLQRYMTVVT	inactive
LKVYR	inactive
LKYNEKDPFECH	-0.318 ± 0.42
LLAVLALVGLC	inactive
LLCIFDSRCERLNVLAFRYV	inactive
LLCLLQEIGFVAITGWI	inactive
LLDDVIRDAMPGSAGRSISG	inactive
LLFLNFTICCYSFRKGMHGF	-0.344 ± 0.32
LLGRSLH	inactive
LLGVLDSLMRRFMNHINETG	inactive
LLGVWG	0.217 ± 0.53
LLHTTLA	inactive
LLIGSGVSYFKTWFARHLTA	inactive
LLLRLLAWYMMVS	inactive
LLLSFYLNGILVIHML	inactive

Substance	amyloid nucleation score
LLMGFWIWFINGVCNVRTDS	inactive
LLMLTEQ	inactive
LLRKRHVLNTK	inactive
LLRVSYFIVLRTLN	inactive
LLSFENNSQLVYVCIDNTLE	inactive
LLSVTCTG	inactive
LLTNLCIQYISSTLYYDRLF	inactive
LLVANG	inactive
LLVAYDQIFNF	inactive
LLVLKYVMSRTWWSWGA	inactive
LLVSACA	inactive
LLVVNNCIYGMVKRSIGYD	2.13 ± 0.07
LLVWNLMTRFYYF	inactive
LLWLLIWEFHT	inactive
LLYNTMSLSSSWEY	0.893 ± 0.17
LLYYFYTFTQGR	-0.148 ± 0.43
LMGKTHFLSVVWVVQVG	inactive
LMILLGSKFRNANGTTSMLK	inactive
LMKSMSNLLYADLKEYSQVG	inactive
LMNKKCNPGDKTLQIYIRRG	inactive
LMSLWLLLWGTEESALDMAD	inactive
LMSYV	inactive
LNALLGQYSDISMRISLNVS	inactive

Substance	amyloid nucleation score
LNELHMFSGPAYLFSVFRDM	inactive
LNFRSV	inactive
LNFWTIAWARWRIFLCSVLQ	inactive
LNLVRNWTISAAGKVALKWS	inactive
LNMIHSVA	inactive
LNPLPQRLYSPCSLKFCNDG	inactive
LNPVKKLLGRLSGSREG	inactive
LNPVRSYSKNNIYLLTMLAL	inactive
LNRWCCFSVITMCLMANFDA	2 ± 0.089
LNSFQHGY	inactive
LNSKSSLVPNMLWDMREHAI	1.04 ± 0.12
LNSMGYFILFYIYRFLENLD	inactive
LNSYSLNWRRCMGVQHSLYP	inactive
LNVSRGWLVNILPYGCNI	inactive
LNVTLIMNRRLFMGTFHLW	inactive
LNWLAFSR	inactive
LNYDSSTRLNVLW	inactive
LNYEIWNISRFRTFFTGVSA	-0.332 ± 0.73
LNYFISLSGRSLPVSCNQIY	inactive
LNYMSDFYLLLSERTCVYYQ	0.754 ± 0.16
LNYVIVDSLDKVVQITREYS	inactive
LPAGFKSR	inactive
LPFCLN	inactive

Substance	amyloid nucleation score
LPGCSTWFGVFFIHDFNLTL	1.69 ± 0.091
LPHVAVEAVTLAMWVE	inactive
LPICGAD	inactive
LPKCGPRYFDWLNAPEDCMF	inactive
LPLLTYSSVSVRPLTSW	inactive
LPTCYSF	inactive
LQCLVSAKCNFCMYR	0.869 ± 0.19
LQFDYLMIYLVQFSVLWVCL	inactive
LQKGGNITCTVNHFMWVFAH	0.592 ± 0.32
LQVHILFMAIKYFSMAVV	inactive
LQYLVNLLMQWVLRKIVQKV	inactive
LRARPLLITFGVEWGSASDP	0.465 ± 0.22
LRATHVSVKGSGRYSVSTFS	inactive
LRDMTGILPRGRFADETSRF	inactive
LREVLCCVSTDSYVFILLRG	1.01 ± 0.14
LRGILSIVLVCGENYIKHCG	inactive
LRGITLSMQGCTDWFVMYLC	inactive
LRGYSASSSIVCESSRYARL	inactive
LRLGIEMNTIGTLNMGPLSL	inactive
LRNTFKCVTIRALGSKGGRA	inactive
LRPYHSRVWCVRLQSYSMVR	inactive
LRRDCFLDRSSLRHPVWEWL	inactive
LRSCSSWRRLFKRIVQRHWV	inactive

Substance	amyloid nucleation score
LRSYFALINRLPCTCTRGGM	inactive
LRTLSGNICANL	inactive
LRVQHFDTFNPANGSTPKVG	inactive
LRVVISLVIYMRSSTRICSV	inactive
LRYLIYTNYFRLFAWLNSCK	inactive
LSCFNSVAHCDVNSGMFQIV	inactive
LSEFYPAMRSTTTPVQNVSG	inactive
LSELSRSARVLMFQLFMSRC	1.87 ± 0.081
LSFLTHCRHSWVRVRDILWA	inactive
LSGACVHSAAGSALATQYAR	inactive
LSGANYLLIRNEGM	inactive
LSGKWNKMVCRLVTSKLIFE	inactive
LSGLRNAVERVVAGFIHGRV	inactive
LSIIRKVADRGDPSDLYKMV	inactive
LSILHYSLNCLYHRSYMCIL	inactive
LSITDVGI	inactive
LSIVITRYDMSCSAETMFNL	inactive
LSLLFALLAFEGVRASLSWG	inactive
LSLMSSVGCRCSVFSWLYVN	inactive
LSLNMVTDGIDDNGGNG	inactive
LSMLI	inactive
LSNFITTLSTWITLSI	inactive
LSNQLKDEYHCMWMWWVCPN	1.29 ± 0.13

Substance	amyloid nucleation score
LSRCMWDSDMYRGERYGRRR	inactive
LSRGDLLEYR	inactive
LSRLGWYRFCTIMGCYFWIL	inactive
LSRRNFIRNNVVQ	inactive
LSRSWCWRR	inactive
LSSLVSSSTSCWLWIRTNRL	inactive
LSSVKCSKWSIFMYMRQYIW	inactive
LSTENLLVYMWDRLNSILKG	inactive
LSTNTKSKTPYNVRMSLTGG	0.49 ± 0.34
LSTWSHPSCDRTYVNLKNIV	inactive
LSVMDGTSYAGCELKNVEGW	inactive
LSVMNSVRTWYIIDFATFSC	inactive
LSWDVYSRHFG	2.31 ± 0.076
LSYFSLLGFRYSRGVMGYQM	inactive
LSYLFFKPFWA	0.357 ± 0.74
LSYNRKEYGNRPGFSEYSST	inactive
LSYSSRTRCMLLSLYWCSIR	inactive
LSYYVS	inactive
LTCPSFCVSRLRESWDESLS	inactive
LTFISLSLGPDSRFSMTKYY	inactive
LTFSSSHCVIMWQFLCKLVG	inactive
LTGFYYFTAYVCPNLILVTR	0.878 ± 0.14
LTGRISIARFEVDLGFGCPS	0.682 ± 0.18

Substance	amyloid nucleation score
LTLNSKVTDM	inactive
LTMALYWTCSLTHILSYGID	0.062 ± 0.23
LTNRADE	inactive
LTRLSRNHVVRWRYIREGGW	inactive
LTSGVNRISQQPWLSLVDIG	inactive
LTVRSHHQAGDMCRRRAISP	inactive
LVASSYS	inactive
LVFHQDMCGNYYFRH	0.953 ± 0.13
LVFHYRARKGLSIIG	inactive
LVGNHVSVAIISLVPLSFPH	2.06 ± 0.067
LVISNIFRPHSVPWIIVENS	inactive
LVKPNVDFVT	inactive
LVKRCVVGFTHFPTIYTCIQ	inactive
LVLWMVDTSFAGSVDVSEMA	inactive
LVMACCNIMKSATMIILYTM	1.26 ± 0.093
LVMKQRLIMLYVKLNKAFLA	inactive
LVNIDLFNDYRAVCGLLTRD	inactive
LVNLAELDFVECCLENKMQW	inactive
LVPIVVGKRFPIYVGVGPKG	inactive
LVRHARNKDNLFGN	inactive
